One substance from paper PMC4962319 can be followed below.

Some results are limits rather than exact numbers.

The assay concerns the target TIA-1-GLuc1 (UniProt P31483). Briefly: split reporter (BiFC, NanoBiT); split Gaussia luciferase protein-fragment complementation assay (PCA); GLuc1 and GLuc2 fusions coexpressed in live HEK293T cells, luminescence read 48 h after transfection with native coelenterazine.
Sequence of UniProt P31483 (P31483 whole entry, the tested form may be a part): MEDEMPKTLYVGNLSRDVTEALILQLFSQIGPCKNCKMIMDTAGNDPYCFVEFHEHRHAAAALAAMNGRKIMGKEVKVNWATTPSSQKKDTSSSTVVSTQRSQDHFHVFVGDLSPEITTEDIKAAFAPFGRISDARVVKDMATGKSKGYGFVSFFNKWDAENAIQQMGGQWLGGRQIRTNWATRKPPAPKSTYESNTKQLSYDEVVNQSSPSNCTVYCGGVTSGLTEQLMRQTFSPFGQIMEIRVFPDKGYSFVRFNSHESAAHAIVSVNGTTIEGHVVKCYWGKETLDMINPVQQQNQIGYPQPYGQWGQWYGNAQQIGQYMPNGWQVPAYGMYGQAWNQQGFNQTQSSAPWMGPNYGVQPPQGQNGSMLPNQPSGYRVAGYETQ

On to “TauE14-GLuc2 (from UniProt P10636-6 1-383) (natural protein)”, for which the fold of PCA interaction signal over wildtype Tau was > 6 fold.
